Each substance was assayed against HLA-A*02:01 (Homo sapiens, UniProt P04439, D140Y/D185E/D98H/E176V/E277Q/G131W/G231S/I119V/I121R/I166T/I218V/L300P/L318F/N151K/N90K/P208A/P217A/Q86G/Q94H/R138H/R169H/T345S) (assay: MHC binding assay (UV-ligand exchange, β2m ELISA, peptide exchange yield)). Conditions: binding of HLA-class I restricted peptides to HLA-A*02:01, UV-ligand exchange.
Text: Candidate peptides for T cell based therapies according to the present invention were further tested for their MHC binding capacity (affinity). The individual peptide-MHC complexes were produced by UV-ligand exchange, where a UV-sensitive peptide is cleaved upon UV-irradiation, and exchanged with the peptide of interest as analyzed. Only peptide candidates that can effectively bind and stabilize the peptide-receptive MHC molecules prevent dissociation of the MHC complexes. To determine the yield of the exchange reaction, an ELISA was performed based on the detection of the light chain (β2m) of stabilized MHC complexes. The assay was performed as generally described in Rodenko et al. (Rodenko et al., 2006).
96 well MAXISorp plates (NUNC) were coated over night with 2 ug/ml streptavidin in PBS at room temperature, washed 4× and blocked for 1h at 37° C. in 2% BSA containing blocking buffer. […] Peptide-MHC monomers of the UV-exchange reaction were diluted 100 fold in blocking buffer. Samples were incubated for 1 h at 37° C., washed four times, incubated with 2 ug/ml HRP conjugated anti-β2m for 1h at 37° C., washed again and detected with TMB solution that is stopped with […]. Absorption was measured at 450 nm. Candidate peptides that show a high exchange yield (preferably higher than 50%, most preferred higher than 75%) are generally preferred for a generation and production of antibodies or fragments thereof, and/or T cell receptors or fragments thereof, as they show sufficient avidity to the MHC molecules and prevent dissociation of the MHC complexes.
In the case of “359 (YLLPESVDL; listed as Homo sapiens) [compound 359]”, the “Peptide exchange (MHC class I binding score, peptide exchange yield)” value (shortened to “Peptide exchange”) is reported as ““+++” (≥50 = +++)”. With “86 (NLIGKIENV; listed as Homo sapiens) [compound 86]” the “Peptide exchange” value was ““+++” (≥50 = +++)”. For “72 (SLLELDGINL; listed as Homo sapiens) [compound 72]”, the “Peptide exchange” value was ““+++” (≥50 = +++)”. With “264 (SLQEQLHSV; listed as Homo sapiens) [compound 264]” the “Peptide exchange” value was ““+++” (≥50 = +++)”. For “101 (ILVGGGALATV; listed as Homo sapiens) [compound 101]”, the “Peptide exchange” value was ““+++” (≥50 = +++)”. For “570 (ALANQIPTV; listed as Homo sapiens) [compound 570]”, the “Peptide exchange” value was ““++” (≥20% = ++)”. “436 (HLAEVSAEV; listed as Homo sapiens) [compound 436]” was tested, and the “Peptide exchange” value was ““+++” (≥50 = +++)”. With “217 (ALIHPVSTV; listed as Homo sapiens) [compound 217]” the “Peptide exchange” value was ““++” (≥20% = ++)”. For “582 (TLCDVILMV; listed as Homo sapiens) [compound 582]”, the “Peptide exchange” value was ““+++” (≥50 = +++)”. “270 (LLLDEEGTFSL; listed as Homo sapiens) [compound 270]” was tested, and the “Peptide exchange” value was ““++” (≥20% = ++)”. With “202 (ALLDQQGSRWTL; listed as Homo sapiens) [compound 202]” the “Peptide exchange” value was ““+++” (≥50 = +++)”. For “233 (VLSETLYEL; listed as Homo sapiens) [compound 233]”, the “Peptide exchange” value was ““++” (≥20% = ++)”. In the case of “71 (GILARIASV; listed as Homo sapiens) [compound 71]”, the “Peptide exchange” value is reported as ““+++” (≥50 = +++)”. “77 (ILVEADGAWVV; listed as Homo sapiens) [compound 77]” was tested, and the “Peptide exchange” value was ““++++” (≥75% = ++++)”. “409 (LLDAMNYHL; listed as Homo sapiens) [compound 409]” was tested, and the “Peptide exchange” value was ““++” (≥20% = ++)”. In the case of “149 (NLLELFVQL; listed as Homo sapiens) [compound 149]”, the “Peptide exchange” value is reported as ““+++” (≥50 = +++)”. For “465 (QLCDLNAEL; listed as Homo sapiens) [compound 465]”, the “Peptide exchange” value was ““+++” (≥50 = +++)”. With “520 (LAVHPSGVAL; listed as Homo sapiens) [compound 520]” the “Peptide exchange” value was ““+” (≥10% = +)”. “325 (FIMPATVADATAV; listed as Homo sapiens) [compound 325]” was tested, and the “Peptide exchange” value was ““+++” (≥50 = +++)”. For “62 (VLLDVSAGQLLM; listed as Homo sapiens) [compound 62]”, the “Peptide exchange” value was ““++++” (≥75% = ++++)”. With “427 (ALLPLSPYL; listed as Homo sapiens) [compound 427]” the “Peptide exchange” value was ““+++” (≥50 = +++)”. With “178 (ALTEIAFVV; listed as Homo sapiens) [compound 178]” the “Peptide exchange” value was ““++++” (≥75% = ++++)”. For “249 (LLDGFLVNV; listed as Homo sapiens) [compound 249]”, the “Peptide exchange” value was ““+++” (≥50 = +++)”. With “61 (FLQGYQLHL; listed as Homo sapiens) [compound 61]” the “Peptide exchange” value was ““++++” (≥75% = ++++)”. With “457 (SLLPGNLVEKV; listed as Homo sapiens) [compound 457]” the “Peptide exchange” value was ““+++” (≥50 = +++)”. “162 (YQQAQVPSV; listed as Homo sapiens) [compound 162]” was tested, and the “Peptide exchange” value was ““+++” (≥50 = +++)”. In the case of “314 (ALIAEGIALV; listed as Homo sapiens) [compound 314]”, the “Peptide exchange” value is reported as ““+++” (≥50 = +++)”. In the case of “247 (VLLPNDLLEKV; listed as Homo sapiens) [compound 247]”, the “Peptide exchange” value is reported as ““+++” (≥50 = +++)”. In the case of “524 (ALIENLTHQI; listed as Homo sapiens) [compound 524]”, the “Peptide exchange” value is reported as ““++” (≥20% = ++)”. With “88 (FLLVGDLMAV; listed as Homo sapiens) [compound 88]” the “Peptide exchange” value was ““+++” (≥50 = +++)”. “258 (ELAERVPAI; listed as Homo sapiens) [compound 258]” was tested, and the “Peptide exchange” value was ““++” (≥20% = ++)”. In the case of “148 (ALNPEIVSV; listed as Homo sapiens) [compound 148]”, the “Peptide exchange” value is reported as ““++” (≥20% = ++)”. For “140 (YMDAPKAAL; listed as Homo sapiens) [compound 140]”, the “Peptide exchange” value was ““++” (≥20% = ++)”. In the case of “377 (FLLDSSASV; listed as Homo sapiens) [compound 377]”, the “Peptide exchange” value is reported as ““++” (≥20% = ++)”. “401 (ILLDDTGLAYI; listed as Homo sapiens) [compound 401]” was tested, and the “Peptide exchange” value was ““+++” (≥50 = +++)”. “63 (YLLPSGGSVTL; listed as Homo sapiens) [compound 63]” was tested, and the “Peptide exchange” value was ““++” (≥20% = ++)”. In the case of “320 (KMFEFVEPLL; listed as Homo sapiens) [compound 320]”, the “Peptide exchange” value is reported as ““++++” (≥75% = ++++)”. In the case of “269 (RVLEVGALQAV; listed as Homo sapiens) [compound 269]”, the “Peptide exchange” value is reported as ““++” (≥20% = ++)”. With “387 (ALFQATAEV; listed as Homo sapiens) [compound 387]” the “Peptide exchange” value was ““++++” (≥75% = ++++)”. “137 (TLVLTLPTV; listed as Homo sapiens) [compound 137]” was tested, and the “Peptide exchange” value was ““++++” (≥75% = ++++)”. “135 (ALSEVDFQL; listed as Homo sapiens) [compound 135]” was tested, and the “Peptide exchange” value was ““+++” (≥50 = +++)”. “298 (VMITKLVEV; listed as Homo sapiens) [compound 298]” was tested, and the “Peptide exchange” value was ““+++” (≥50 = +++)”. With “493 (GLLGEKTQDLIGV; listed as Homo sapiens) [compound 493]” the “Peptide exchange” value was ““+++” (≥50 = +++)”. For “257 (SIFSAFLSV; listed as Homo sapiens) [compound 257]”, the “Peptide exchange” value was ““+++” (≥50 = +++)”. “618 (VLFDSESIGIYV; listed as Homo sapiens) [compound 618]” was tested, and the “Peptide exchange” value was ““+++” (≥50 = +++)”. “163 (ALDEMGDLLQL; listed as Homo sapiens) [compound 163]” was tested, and the “Peptide exchange” value was ““+++” (≥50 = +++)”. With “584 (ALAEVAAMENV; listed as Homo sapiens) [compound 584]” the “Peptide exchange” value was ““+++” (≥50 = +++)”. “266 (KITDTLIHL; listed as Homo sapiens) [compound 266]” was tested, and the “Peptide exchange” value was ““+++” (≥50 = +++)”. For “134 (YLQELIFSV; listed as Homo sapiens) [compound 134]”, the “Peptide exchange” value was ““+++” (≥50 = +++)”. For “255 (VLASYNLTV; listed as Homo sapiens) [compound 255]”, the “Peptide exchange” value was ““+++” (≥50 = +++)”. “446 (QLIPALAKV; listed as Homo sapiens) [compound 446]” was tested, and the “Peptide exchange” value was ““+++” (≥50 = +++)”. For “14 (AAYGGLNEKSFV; listed as Homo sapiens) [compound 14]”, the “Peptide exchange” value was ““+++” (≥50 = +++)”. In the case of “231 (FLSPQQPPLLL; listed as Homo sapiens) [compound 231]”, the “Peptide exchange” value is reported as ““++” (≥20% = ++)”. With “373 (SLLEDKGLAEV; listed as Homo sapiens) [compound 373]” the “Peptide exchange” value was ““++” (≥20% = ++)”. “20 (RMIEYFIDV; listed as Homo sapiens) [compound 20]” was tested, and the “Peptide exchange” value was ““+++” (≥50 = +++)”. In the case of “100 (YLLSTNAQL; listed as Homo sapiens) [compound 100]”, the “Peptide exchange” value is reported as ““++++” (≥75% = ++++)”. “562 (YLEELPEKLKL; listed as Homo sapiens) [compound 562]” was tested, and the “Peptide exchange” value was ““+++” (≥50 = +++)”. With “437 (SMAPGLVIQAV; listed as Homo sapiens) [compound 437]” the “Peptide exchange” value was ““+++” (≥50 = +++)”. In the case of “578 (FLDPGGPMMKL; listed as Homo sapiens) [compound 578]”, the “Peptide exchange” value is reported as ““+++” (≥50 = +++)”. With “183 (FGLDLVTEL; listed as Homo sapiens) [compound 183]” the “Peptide exchange” value was ““+++” (≥50 = +++)”. “289 (VLLEIEDLQV; listed as Homo sapiens) [compound 289]” was tested, and the “Peptide exchange” value was ““++++” (≥75% = ++++)”.
